# Molecular target: RelJ antitoxin (recombinant His-tagged) (M. tuberculosis) (UniProt P9WF24)
# Experiment: native gel or EMSA
# Chain of UniProt P9WF24 (P9WF24 whole entry): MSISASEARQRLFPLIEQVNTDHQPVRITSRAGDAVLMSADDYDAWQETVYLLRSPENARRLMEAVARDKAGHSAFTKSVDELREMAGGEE
substance,measurement,value
"RelK toxin (recombinant His-tagged, unphosphorylated) (from UniProt P9WF08 2-85) (natural protein)",stoichiometry N (RelK per RelJ),1
